Laboratory results published in patent publication US20240229000A1, “METHODS AND COMPOSITIONS THEREOF FOR SITE-[…] LABELING OF HUMAN IgG BY PROXIMITY-BASED SORTASE-MEDIATED LIGATION” (THE TRUSTEES OF THE UNIVERSITY OF PENNSYLVANIA, priority 2021, published 2024).

System: trastuzumab (HCLPETG+LC)
Assay: Proximity-based sortase-mediated protein ligation (PBS-PL) heavy chain labeling with GGG-TAMRA
Format: biochemical
Conditions: 1 μg trastuzumab (HCLPETG+LC), 200 μM GGG-TAMRA, 37° C. overnight
Method: FIGS. 13A-13C show comparison of proximity-based sortase-mediated protein ligation with 1M SrtA versus traditional sortase labeling with the pentamutant SrtA. FIG. 13A: Heavy chain labeling of trastuzumab (HCLPETG+LC) was carried out by titrating 5M SrtA (5M SrtA/antibody molar ratios ranging from 1:1 to 100:1) and comparing the labeling efficiency to that of 5M SrtA-pG, 1M SrtA-pZ, 1M SrtA-pG, and 1M pG-SrtA. […] Labeling efficiencies of 5M SrtA (FIG. 13B) and 1M SrtA-pZ (FIG. 13C) on the heavy chain were further compared by scaling the GGG-TAMRA concentration from 1-200 μM. Reaction conditions included: 1 μg trastuzumab (HCLPETG+LC), 500 μM CaCl2, 200 μM GGG-TAMRA, and 0.63 μM SrtA variant (1:1 molar ratio of 1M SrtA-pZ to antibody) in 10 mM Tris-HCl buffer (37° C. overnight). For all titration experiments, all other reactions conditions were held constant. Labeling efficiencies were determined by measuring the fluorescent intensity of the heavy chain band. For each experiment, these values were normalized against the maximum fluorescent intensity to compare across reaction conditions. One-way ANOVA was used to determine statistical significance (*P<0.05, n.s.=not significant), followed by Tukey's multiple comparisons test. Bar graphs are represented as average f SD. N=3 per reaction condition.

trastuzumab (HCLPETG+LC), sequence (as listed by the source, other chains not shown): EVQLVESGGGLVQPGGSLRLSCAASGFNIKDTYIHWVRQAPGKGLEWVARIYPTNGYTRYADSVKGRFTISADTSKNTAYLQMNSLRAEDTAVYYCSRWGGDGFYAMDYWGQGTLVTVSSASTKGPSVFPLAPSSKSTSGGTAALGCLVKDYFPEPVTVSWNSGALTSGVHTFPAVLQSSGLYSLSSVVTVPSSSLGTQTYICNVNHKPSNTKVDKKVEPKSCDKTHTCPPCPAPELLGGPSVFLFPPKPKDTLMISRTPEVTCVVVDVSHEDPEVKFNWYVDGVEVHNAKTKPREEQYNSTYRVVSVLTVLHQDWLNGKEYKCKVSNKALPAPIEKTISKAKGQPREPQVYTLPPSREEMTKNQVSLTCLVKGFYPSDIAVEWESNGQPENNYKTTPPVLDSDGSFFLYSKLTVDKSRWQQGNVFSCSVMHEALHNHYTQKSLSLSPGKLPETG

B1: 5M SrtA-pG (protein)
chain: MQAKPQIPKDKSKVAGYIEIPDADIKEPVYPGPATREQLNRGVSFAEENESLDDQNISIAGHTFIDRPNYQFTNLKAAKKGSMVYFKVGNETRKYKMTSIRNVKPTAVEVLDEQKGKDKQLTLITCDDYNEETGVWETRKIFVATEVKGGSGGSMTFKLIINGKTLKGEITIEAVDAAEAEKIFKQYANDYGIDGEWTYDDATKTFTVTE
- heavy chain labeling efficiency of trastuzumab (HCLPETG+LC): did not label antibodies as efficiently as 1 M SrtA-pG and 1M SrtA-pZ
